Target: Francisella tularensis class II fructose-1,6-bisphosphatase (Francisella tularensis)
Experiment: crystal structure

Francisella tularensis class II fructose-1,6-bisphosphatase (enzyme)
stoichiometry N: 4

— doi:10.1101/2022.09.05.506711
